Results on three molecules are retold here after patent US20120316071A1 (published 2012).

The target of assay [1] is T1, rHuman P-Cadherin/Fc Chimera, CF (R&D Systems Cat#861-PC) (human, UniProt P22223 108-654).
T1 construct: Bought recombinant protein; Fc part of the bought chimera not given
Briefly: MSD multispot ECL, antigen spotted on plate; Fab 0.51 uM; blank spot 1096.

Assay [2] deals with T2, rHuman EGF R/Fc Chimera, CF (R&D Systems Cat#344-ER) (human, UniProt P00533 25-645).
T2 construct: Bought recombinant protein; also called epidermal growth factor receptor; Fc part of the bought chimera not given
The description is as above.

The target in assay [3] is T3, rHuman IGF-1 sR, CF (R&D Systems Cat#391-GR) (human, UniProt P08069 31-932).
T3 construct: Bought recombinant soluble receptor; also called insulin-like growth factor-1 soluble receptor
Described as above.

In assay [4] the target is T4, rHuman Erythropoietin R/Fc Chimera, CF (R&D Systems Cat#963-ER) (human, UniProt P19235 25-250).
T4 construct: Bought recombinant protein; also called EPO R/Fc; Epo R; Fc part of the bought chimera not given
T4 sequence (looked up): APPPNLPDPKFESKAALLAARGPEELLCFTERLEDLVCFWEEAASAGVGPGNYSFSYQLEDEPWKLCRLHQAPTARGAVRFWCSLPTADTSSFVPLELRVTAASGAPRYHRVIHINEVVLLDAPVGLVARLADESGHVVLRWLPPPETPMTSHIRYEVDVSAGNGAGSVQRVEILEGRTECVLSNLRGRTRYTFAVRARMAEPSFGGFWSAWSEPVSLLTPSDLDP
The description is as above.

In assay [5] the target is T5, rHuman CD44/Fc Chimera, CF (R&D Systems Cat#3660-CD) (human, UniProt P16070 21-220).
T5 construct: Bought recombinant protein; Fc part of the bought chimera not given
Described as above.

In assay [6] the target is T6, rHuman Notch-1/Fc Chimera, CF (R&D Systems Cat#3647-TK) (human, UniProt P46531 19-526).
T6 construct: Bought recombinant protein; Fc part of the bought chimera not given
Described as above.

The target of assay [7] is T7, rHuman HGF R/c-MET/Fc Chimera, CF (R&D Systems Cat#358-MT/CF) (human, UniProt P08581 25-932).
T7 construct: Bought recombinant protein; also called HGF R/Fc; hepatocyte growth factor receptor; Fc part of the bought chimera not given
The description is as above.

The target of assay [8] is T8, Recombinant Human DLL4 (R&D Systems Cat#1506-D4/CF) (human, UniProt Q9NR61 27-524).
T8 construct: Bought recombinant protein; also called delta-like protein 4; rHuman DLL4
The description is as above.

Assay [9] has as its target T9, rHuman ErbB2/Fc Chimera, CF (R&D Systems Cat#1129-ER) (human, UniProt P04626 23-652).
T9 construct: Bought recombinant protein; also called human epidermal growth factor 2 receptor; Fc part of the bought chimera not given
The description is as above.

The target in assay [10] is T10, rHuman Erythropoietin R/Fc Chimera, CF (R&D Systems Cat#963-ER) (human, UniProt P19235 25-250).
T10 construct: Bought recombinant protein; also called EPO R; EPO R/Fc; Fc part of the bought chimera not given
T10 sequence (looked up): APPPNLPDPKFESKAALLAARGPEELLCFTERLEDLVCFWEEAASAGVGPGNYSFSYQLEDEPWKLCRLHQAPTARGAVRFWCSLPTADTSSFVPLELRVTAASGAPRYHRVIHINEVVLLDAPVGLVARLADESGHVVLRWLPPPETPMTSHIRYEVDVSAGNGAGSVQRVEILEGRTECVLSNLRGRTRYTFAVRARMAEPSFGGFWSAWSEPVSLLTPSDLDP
In words: ECL Multispot (MSD), antigen spotted; Fab 5 (µM); blank 211.

Assay [11] concerns the target T11, rHuman ErbB2/Fc Chimera, CF (R&D Systems Cat#1129-ER) (human, UniProt P04626 23-652).
T11 construct: Bought recombinant protein; Fc part of the bought chimera not given
Described as above.

For assay [12], the target named is T12, rHuman HGF R/c-MET/Fc Chimera, CF (R&D Systems Cat#358-MT/CF) (human, UniProt P08581 25-932).
T12 construct: Bought recombinant protein; also called HGF R/Fc; Fc part of the bought chimera not given
The assay is described as above.

The target in assay [13] is T13, rHuman P-Cadherin/Fc Chimera, CF (R&D Systems Cat#861-PC) (human, UniProt P22223 108-654).
T13 construct: Bought recombinant protein; Fc part of the bought chimera not given
The description is as above.

Assay [14] addresses T14, rHuman Notch-1/Fc Chimera, CF (R&D Systems Cat#3647-TK) (human, UniProt P46531 19-526).
T14 construct: Bought recombinant protein; Fc part of the bought chimera not given
The description is as above.

In assay [15] the target is T15, rHuman CD44/Fc Chimera, CF (R&D Systems Cat#3660-CD) (human, UniProt P16070 21-220).
T15 construct: Bought recombinant protein; Fc part of the bought chimera not given
The description is as above.

Assay [16] deals with T16, rHuman Erythropoietin R/Fc Chimera, CF (R&D Systems Cat#963-ER) (human, UniProt P19235 25-250).
T16 construct: Bought recombinant protein; also called EPO R/Fc; Epo R; Fc part of the bought chimera not given
T16 sequence (looked up): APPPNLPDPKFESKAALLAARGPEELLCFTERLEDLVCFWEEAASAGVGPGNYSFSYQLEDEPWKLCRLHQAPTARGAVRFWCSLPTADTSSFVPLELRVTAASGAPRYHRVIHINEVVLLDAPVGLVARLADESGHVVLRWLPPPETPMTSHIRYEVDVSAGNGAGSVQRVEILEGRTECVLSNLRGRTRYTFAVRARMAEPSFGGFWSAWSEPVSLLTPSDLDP
Briefly: Multispot ECL (MSD), antigen spotted on plate, Fab 1000 nM; blank spot 1133.

Assay [17] deals with T17, rHuman Notch-1/Fc Chimera, CF (R&D Systems Cat#3647-TK) (human, UniProt P46531 19-526).
T17 construct: Bought recombinant protein; Fc part of the bought chimera not given
The assay is described as above.

Assay [18] deals with T18, rHuman IGF-1 sR, CF (R&D Systems Cat#391-GR) (human, UniProt P08069 31-932).
T18 construct: Bought recombinant soluble receptor; also called insulin-like growth factor-1 soluble receptor
The description is as above.

For assay [19], the target named is T19, Recombinant Human DLL4 (R&D Systems Cat#1506-D4/CF) (human, UniProt Q9NR61 27-524).
T19 construct: Bought recombinant protein; also called rHuman DLL4; delta-like protein 4
The assay is described as above.

B1: Fab VH4-34_IGHD7-27*01_IGHJ4*01 & L5_IGKJ1*01 (Fab, V domains shown)
VH: QVQLQQWGAGLLKPSETLSLTCAVYGGSFSGYYWSWIRQPPGKGLEWIGEINHSGSTNYNPSLKSRVTISVDTSKNQFSLKLSSVTAADTAVYYCARANWGDYFDYWGQGTLVTVSS
VL: DIQMTQSPSSVSASVGDRVTITCRASQGISSWLAWYQQKPGKAPKLLIYAASSLQSGVPSRFSGSGSGTDFTLTISSLQPEDFATYYCQQANSFPPWTFGQGTKVEIKR
notes: Germline library Fab expressed in E. coli; VH was cloned into Plasmid A, which adds CH1 with His6 and Flag tags
Take B1: the ECL signal was found to be 2390 in assay [1]; 2360 in assay [2]; 2240 in [3]; 2620 in assay [4]; 2010 in assay [5]; 2770 in assay [6]. The ECL signal in [7] is 1990; in [8], 5180; in [9], 1530.

B2: Fab VH1-46_IGHD6-6*01_IGHJ1*01 S102A/S103P/S104F (APF) & L6_IGKJ1*01 (Fab, V domains shown)
VH: QVQLVQSGAEVKKPGASVKVSCKASGYTFTSYYMHWVRQAPGQGLEWMGIINPSGGSTSYAQKFQGRVTMTRDTSTSTVYMELSSLRSEDTAVYYCAREEYAPFSAEYFQHWGQGTLVTVSS
VL: not shown
notes: Tested as a Fab made in E. coli: VH cloned in Plasmid A (CH1 constant region, His6 and Flag tags), VL in Plasmid C (kappa constant region); also called H:APF & L:wt; APF triple mutant
Regarding B2, the ECL signal stood at 423 in assay [10]; 401 in assay [11]; 309 in assay [12]; 547 in assay [13]; 338 in [14]; 343 in assay [15].

B3: Fab VH1-46_IGHD6-13*01_IGHJ4*01 & B3_IGKJ1*01 (Fab, V domains shown)
VH: QVQLVQSGAEVKKPGASVKVSCKASGYTFTSYYMHWVRQAPGQGLEWMGIINPSGGSTSYAQKFQGRVTMTRDTSTSTVYMELSSLRSEDTAVYYCAREGYSSSWYDYFDYWGQGTLVTVSS
VL: not shown
notes: Germline Fab made in E. coli; VH was cloned into Plasmid A (CH1, His6 and Flag tags) and the kappa VL into Plasmid C (kappa CL)
As to B3, the ECL signal in assay [16] is 8590; in assay [17] it was 2270; in assay [18], 1670; in [19] it was 2780.
